PMC4568413, “Functional analysis of the sporulation-specific diadenylate cyclase CdaS in Bacillus thuringiensis” (Frontiers in Microbiology, 2015)

Target: the molecule itself
Assay: SEC; Superdex 200HR 10/30; about 10 mg/mL CdaS loaded (1 mL); 25 mM Tris-HCl pH 8.0, 150 mM NaCl; 0.5 mL/min; calibrated with Bio-Rad protein standards

B1: CdaS protein from Bacillus thuringiensis BMB171 (enzyme, UniProt D5TM67 1-201, looked up)
chain: MHEWGLSEELKIQTKQMIEIAEKELSIMRNAIDKEDECILCKMEDIHHMLANVQTLAATYYIQAYLSPYTESSSFITTAIQHLSARKHGALIVVERNETLEALIQTGTTLNAHLTAPLLESIFYPGNPLHDGAVLVKNNHIVSAANILPLTKSTEVDPELGTRHRAAIGLSEKSDALILVVSEETGRTSFALNGILYTISL
notes: CdaS (cyclic di-AMP synthase, sporulation-specific; N-terminal YojJ domain and C-terminal DAC domain) of Bacillus thuringiensis BMB171; full length, the truncated constructs end at residue 201; cdaS gene 606 bp; theoretical monomer mass 23.3 kDa; Cloned in NcoI and XhoI sites of pET28b; also called B. thuringiensis CdaS; wild type CdaS; source: E. coli BL21(DE3) harboring pET28b-cdaS, purified …
stoichiometry N: 6
